Test results reported in IntAct's records for PubMed 11454741.

B1: Stonin-2 (Homo sapiens), Q8WXE9 (parent)
chain: MTTLDHVIATHQSEWVSFNEEPPFPAHSQGGTEEHLPGLSSSPDQSESSSGENHVVDGGSQDHSHSEQDDSSEKMGLISEAASPPGSPEQPPPDLASAISNWVQFEDDTPWASTSPPHQETAETALPLTMPCWTCPSFDSLGRCPLTSESSWTTHSEDTSSPSFGCSYTDLQLINAEEQTSGQASGADSTDNSSSLQEDEEVEMEAISWQASSPAMNGHPAPPVTSARFPSWVTFDDNEVSCPLPPVTSPLKPNTPPSASVIPDVPYNSMGSFKKRDRPKSTLMNFSKVQKLDISSLNRTPSVTEASPWRATNPFLNETLQDVQPSPINPFSAFFEEQERRSQNSSISSTTGKSQRDSLIVIYQDAISFDDSSKTQSHSDAVEKLKQLQIDDPDHFGSATLPDDDPVAWIELDAHPPGSARSQPRDGWPMMLRIPEKKNIMSSRHWGPIFVKLTDTGYLQLYYEQGLEKPFREFKLEICHEISEPRLQNYDENGRIHSLRIDRVTYKEKKKYQPKPAVAHTAEREQVIKLGTTNYDDFLSFIHAVQDRLMDLPVLSMDLSTVGLNYLEEEITVDVRDEFSGIVSKGDNQILQHHVLTRIHILSFLSGLAECRLGLNDILVKGNEIVLRQDIMPTTTTKWIKLHECRFHGCVDEDVFHNSRVILFNPLDACRFELMRFRTVFAEKTLPFTLRTATSVNGAEVEVQSWLRMSTGFSANRDPLTQVPCENVMIRYPVPSEWVKNFRRESVLGEKSLKAKVNRGASFGSTSVSGSEPVMRVTLGTAKYEHAFNSIVWRINRLPDKNSASGHPHCFFCHLELGSDREVPSRFANHVNVEFSMPTTSASKASVRSISVEDKTDVRKWVNYSAHYSYQVALGSIWLMLPTPFVHPTTLPLLFLLAMLTMFAW
B2: Synaptotagmin-1 (Rattus norvegicus (Rat)), P21707 (parent)
chain: MVSASHPEALAAPVTTVATLVPHNATEPASPGEGKEDAFSKLKQKFMNELHKIPLPPWALIAIAIVAVLLVVTCCFCVCKKCLFKKKNKKKGKEKGGKNAINMKDVKDLGKTMKDQALKDDDAETGLTDGEEKEEPKEEEKLGKLQYSLDYDFQNNQLLVGIIQAAELPALDMGGTSDPYVKVFLLPDKKKKFETKVHRKTLNPVFNEQFTFKVPYSELGGKTLVMAVYDFDRFSKHDIIGEFKVPMNTVDFGHVTEEWRDLQSAEKEEQEKLGDICFSLRYVPTAGKLTVVILEAKNLKKMDVGGLSDPYVKIHLMQNGKRLKKKKTTIKKNTLNPYYNESFSFEVPFEQIQKVQVVVTVLDYDKIGKNDAIGKVFVGYNSTGAELRHWSDMLANPRRPIAQWHTLQVEEEVDAMLAVKK
partner: B1 chain

Variants of: B1
Details: with syt1_rat Syt1, P21707

Row | Variant | effect of a mutation on the interaction
1 | W738A;K740A | decreasing interaction

Variants of: B2
Details: with ston2_human STON2, Q8WXE9

Row | Variant | effect of a mutation on the interaction
2 | K189A;K190A | decreasing interaction
